Our source for the transactivation of TKp-luciferase reporters with one to 20 EBNA1-binding sites, 20 sites over a single site, C33a cells values is PMC2690687.

The experiment has as its target Epstein-Barr Nuclear Antigen 1 (EBNA1), wild type (Epstein-Barr virus) (UniProt P03211).

With “Epstein-Barr Nuclear Antigen 1 (EBNA1), wild type (from UniProt P03211 1-641) (natural protein)”, the transactivation of TKp-luciferase reporters with one to 20 EBNA1-binding sites, 20 sites over a single site, C33a cells came to 150 fold.
